Data: US20220195063A1 (BYONDIS B V, published 2022)
Changes are numbered by the printed parent chain. One block for each binder: values may come before it.

What was measured:
[1] = target: human SIRPαBIT expressed on cells (human) (UniProt P78324); assay: flow cytometry, U937 cells
[2] = target: T1, human SIRPα1 (huSIRPα1), protein antigen (human, UniProt P78324 31-370, limits assumed, biotinylated in the SPR assay); assay: SPR, biotinylated antigen captured, 25 C
T1 construct: Coated on the plate in ELISA, biotinylated and captured in SPR; also called v2
Experimental: (§1) Surface Plasmon Resonance (SPR) assay: Affinity analysis was performed by single cycle kinetics analysis on a Surface Plasmon Resonance apparatus (Biacore T200 system, GE Life Sciences) at 25° C. Biotinylated SIRP antigens were captured on the surface of a chip suitable for biotinylated molecules (Sensor Chip CAP, GE Life Sciences) by injecting 5 μg/ml of the SIRP antigen in running buffer (10 mM HEPES buffer at pH 7.4 with 150 mM NaCl, 3 mM EDTA and 0.005% v/v polyoxyethylene (20) sorbitan monolaurate (Surfactant P20) for 60 sec at 10 μL/min after injection of a streptavidin conjugate (20× diluted biotin CAPture reagent, GE Life Sciences) for 60 sec at 10 μl/min. Baseline stabilization was set at 1 min after which five increasing concentrations of an anti-SIRP antibody in running buffer (10 mM HEPES buffer at pH 7.4 with 150 mM NaCl, 3 mM EDTA and 0.005% v/v polyoxyethylene (20) sorbitan monolaurate) were injected. For each step an association time of 150 sec was used, followed by a dissociation time of 1200 sec at the highest concentration only, all at a flow rate of 30 μL/min. Regeneration was performed with 6 M guanidine-HCl, 0.25 M NaOH solution (60 sec with flow rate of 30 μL/min). Double blank subtraction was performed on the observed sensorgrams using a non anti-SIRP (blank) immobilized reference flow channel and running buffer injection. Sensorgrams were fitted with a 1:1 Langmuir model for all tested anti-SIRP antibodies. The kinetic parameters (kₐ, kd and KD) were calculated using the Biacore T200 evaluation software (v3.1).

[3] = target: T2, human SIRPγ (huSIRPγ) (human, UniProt Q9P1W8 29-360, limits assumed, biotinylated in the SPR assay); assay: SPR, biotinylated antigen captured, 25 C
T2 construct: Coated on the plate in ELISA, biotinylated and captured in SPR
Experimental: as §1

[4] = target: human SIRPαBIT expressed on cells (human) (UniProt P78324); assay: flow cytometry, ExpiCHO-S cells
[5] = target: human SIRPαBIT (huSIRPαBIT), protein antigen (human) (UniProt P78324); assay: SPR, biotinylated antigen captured, 25 C
[6] = target: T3, cynomolgus SIRPα expressed on cells (cynomolgus monkey, UniProt A0A2K5VYQ9 31-507); assay: flow cytometry, ExpiCHO-S cells
T3 construct: whole, on cells; also called ExpiCHO-S (cySIRPα)
T3 sequence: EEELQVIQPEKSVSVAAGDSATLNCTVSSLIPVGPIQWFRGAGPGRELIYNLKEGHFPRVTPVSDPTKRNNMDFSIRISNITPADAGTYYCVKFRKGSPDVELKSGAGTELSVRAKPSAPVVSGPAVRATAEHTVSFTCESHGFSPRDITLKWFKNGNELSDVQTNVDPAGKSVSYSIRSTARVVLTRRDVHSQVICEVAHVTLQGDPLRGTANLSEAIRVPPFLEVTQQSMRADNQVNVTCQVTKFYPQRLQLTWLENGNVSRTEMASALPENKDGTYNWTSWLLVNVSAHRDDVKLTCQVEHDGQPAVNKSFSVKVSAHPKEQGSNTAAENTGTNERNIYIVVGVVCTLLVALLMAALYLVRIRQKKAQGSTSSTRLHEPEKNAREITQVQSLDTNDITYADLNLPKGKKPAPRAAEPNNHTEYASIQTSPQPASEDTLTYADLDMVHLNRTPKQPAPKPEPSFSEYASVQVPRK
Excerpt: (§2) Flow Cytometry: U937 cells endogenously expressing human SIRPαBIT antigen and cells derived from a non-engineered subclone that has been screened and isolated from CHO-S Chinese hamster ovary cells (ExpiCHO-S) cells expressing human SIRPα₁, SIRPαBIT or cySIRPα antigen (100,000 cells/well in a 96-well plate) were washed three times with ice-cold FACS buffer (1×PBS (LONZA) containing 0.2% v/w BSA (Sigma-Aldrich, St. Louis, Mo.) and 0.02% v/w NaN₃ (Sigma-Aldrich), followed by the addition of a concentration range of each primary mAb (50 μL/well) diluted in ice-cold FACS buffer. After an incubation time of 30 min at 4° C., the cells were washed three times with ice-cold FACS buffer and 50 μL/well secondary mAb (AffiniPure F(ab′)₂ fragment Goat-anti-human IgG-APC, 1:6,000 dilution, Jackson Immuno Research) was added. After 30 min at 4° C., cells were washed twice and resuspended in 150 μL FACS buffer. Fluorescence intensities were determined by flow cytometry (BD FACSVerse, Franklin Lakes, N.J.) and indicated as the median fluorescence intensity (MFI-Median) for U937 cells and ExpiCHO-S cells. Curves were fitted by nonlinear regression using the sigmoidal dose-response equation with variable slope (four parameters) in GraphPad Prism (version 7.02 for Windows, GraphPad, San Diego, Calif.). EC₅₀ values were calculated as the concentration in μg/mL that gives a response half way between bottom and top of the curve, when using a 4-parameter logistic fit.

[7] = target: T4, human SIRPα1 expressed on cells (human, UniProt P78324 31-504); assay: flow cytometry, ExpiCHO-S cells
T4 construct: whole, on cells; also called ExpiCHO-S (huSIRPα1); CHO cells expressing huSIRPα1
Excerpt: as §2

[8] = target: human SIRPβ1v1 (huSIRPβ1v1) (human) (UniProt O00241); assay: ELISA, antigen coated
[9] = target: human SIRPαBIT (huSIRPαBIT), protein antigen (human) (UniProt P78324); assay: ELISA, antigen coated
[10] = target: T2, human SIRPγ (huSIRPγ); assay: ELISA, antigen coated; ELISA (Table 2); finite EC50, below the 100,000 ng/ml cap
Experimental: (§3) ELISA assay: Solutions of huSIRPα₁, huSIRPαBIT, huSIRPβ₁ᵥ₁, huSIRPβ₁ᵥ₂, huSIRPγ and cySIRPα in phosphate buffered saline (PBS) were each added to a multiple well black polystyrene plate for ELISA and allowed to adhere for 1 h at RT. Unbound protein was removed with three washing steps using standard washing buffer. Subsequently, blocking buffer was added to the wells. After 1 h incubation at RT, the wells were washed three times with standard washing buffer. The antibodies in buffer at various concentrations were added to the wells and incubated at RT for 1 h. Unbound antibodies were removed with three washing steps using standard washing buffer. Goat anti human IgG (Fab′)₂:horse radish peroxidase (HRP) in buffer was added to the wells and incubated at RT for 1 h. 3,3′,5,5′-Tetramethylbenzidine (TMB) was added and after sufficient colour development HCl was added. Absorbance was read at 450 nm/620 nm.

[11] = target: T5, human SIRPβ1v2 (huSIRPβ1v2) (human, UniProt Q5TFQ8 30-371); assay: ELISA, antigen coated
T5 construct: Coated on the plate in ELISA; Only the Ensembl protein number is printed; also called huSIRPß1v2
Experimental: as §3

[12] = target: T6, cynomolgus SIRPα (cySIRPα), protein antigen (cynomolgus monkey, UniProt A0A2K5VYQ9 31-369); assay: ELISA, antigen coated
T6 construct: Coated on the plate in ELISA
T6 sequence: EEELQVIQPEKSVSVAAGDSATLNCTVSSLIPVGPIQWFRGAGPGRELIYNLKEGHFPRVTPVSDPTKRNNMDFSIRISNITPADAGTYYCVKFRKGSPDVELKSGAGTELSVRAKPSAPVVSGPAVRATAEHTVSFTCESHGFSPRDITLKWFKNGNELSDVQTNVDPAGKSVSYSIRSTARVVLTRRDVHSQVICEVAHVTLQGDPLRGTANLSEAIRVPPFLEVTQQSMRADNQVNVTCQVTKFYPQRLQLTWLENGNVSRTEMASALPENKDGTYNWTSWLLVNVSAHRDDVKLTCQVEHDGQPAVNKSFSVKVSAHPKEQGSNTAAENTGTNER
Experimental: as §3

[13] = target: T1, human SIRPα1 (huSIRPα1), protein antigen; assay: ELISA, antigen coated
Experimental: as §3

T4 sequence (P78324 other isoform, or with tags, fused parts or gaps limits assumed): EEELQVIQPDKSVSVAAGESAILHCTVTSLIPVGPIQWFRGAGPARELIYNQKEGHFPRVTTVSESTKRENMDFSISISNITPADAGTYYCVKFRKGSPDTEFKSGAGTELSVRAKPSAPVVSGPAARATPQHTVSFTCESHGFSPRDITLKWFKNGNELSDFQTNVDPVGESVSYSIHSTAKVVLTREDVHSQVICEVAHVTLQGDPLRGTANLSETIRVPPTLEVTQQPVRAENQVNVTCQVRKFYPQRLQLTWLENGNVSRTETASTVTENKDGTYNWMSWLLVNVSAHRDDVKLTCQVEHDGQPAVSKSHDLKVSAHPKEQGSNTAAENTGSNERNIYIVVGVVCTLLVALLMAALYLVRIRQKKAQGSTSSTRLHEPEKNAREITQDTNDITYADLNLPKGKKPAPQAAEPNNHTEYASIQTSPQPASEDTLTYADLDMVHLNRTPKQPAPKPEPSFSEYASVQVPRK
human SIRPαBIT (huSIRPαBIT), protein antigen (human), sequence (P78324 31-370): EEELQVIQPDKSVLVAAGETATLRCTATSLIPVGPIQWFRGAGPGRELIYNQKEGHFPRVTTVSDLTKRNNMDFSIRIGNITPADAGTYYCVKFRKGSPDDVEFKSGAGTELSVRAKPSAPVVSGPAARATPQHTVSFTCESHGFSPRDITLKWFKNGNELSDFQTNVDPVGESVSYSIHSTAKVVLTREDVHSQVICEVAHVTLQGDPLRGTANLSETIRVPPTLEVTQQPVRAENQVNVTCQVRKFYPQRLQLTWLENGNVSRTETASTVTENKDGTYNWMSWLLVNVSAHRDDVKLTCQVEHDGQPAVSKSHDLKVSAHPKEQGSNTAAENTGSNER
T2 sequence (Q9P1W8 29-360 limits assumed): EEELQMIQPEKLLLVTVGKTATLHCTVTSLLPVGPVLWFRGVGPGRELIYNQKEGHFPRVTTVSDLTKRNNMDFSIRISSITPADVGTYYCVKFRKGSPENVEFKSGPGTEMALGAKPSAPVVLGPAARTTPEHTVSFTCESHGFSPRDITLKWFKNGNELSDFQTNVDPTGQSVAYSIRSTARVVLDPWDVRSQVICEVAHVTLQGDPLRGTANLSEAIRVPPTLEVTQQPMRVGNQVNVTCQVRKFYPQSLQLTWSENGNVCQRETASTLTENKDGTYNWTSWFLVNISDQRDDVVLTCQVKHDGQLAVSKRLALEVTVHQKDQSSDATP
T1 sequence (P78324 other isoform, or with tags, fused parts or gaps limits assumed): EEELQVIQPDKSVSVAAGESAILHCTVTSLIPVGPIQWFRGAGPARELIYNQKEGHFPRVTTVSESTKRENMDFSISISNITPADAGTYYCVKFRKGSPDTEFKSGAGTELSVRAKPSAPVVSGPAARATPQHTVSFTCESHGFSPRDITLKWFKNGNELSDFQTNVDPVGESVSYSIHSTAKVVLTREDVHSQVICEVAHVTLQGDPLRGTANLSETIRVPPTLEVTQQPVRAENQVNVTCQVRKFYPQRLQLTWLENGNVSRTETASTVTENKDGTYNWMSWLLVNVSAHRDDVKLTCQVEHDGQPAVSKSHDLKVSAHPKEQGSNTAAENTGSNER
human SIRPαBIT expressed on cells (human), sequence (P78324 31-504): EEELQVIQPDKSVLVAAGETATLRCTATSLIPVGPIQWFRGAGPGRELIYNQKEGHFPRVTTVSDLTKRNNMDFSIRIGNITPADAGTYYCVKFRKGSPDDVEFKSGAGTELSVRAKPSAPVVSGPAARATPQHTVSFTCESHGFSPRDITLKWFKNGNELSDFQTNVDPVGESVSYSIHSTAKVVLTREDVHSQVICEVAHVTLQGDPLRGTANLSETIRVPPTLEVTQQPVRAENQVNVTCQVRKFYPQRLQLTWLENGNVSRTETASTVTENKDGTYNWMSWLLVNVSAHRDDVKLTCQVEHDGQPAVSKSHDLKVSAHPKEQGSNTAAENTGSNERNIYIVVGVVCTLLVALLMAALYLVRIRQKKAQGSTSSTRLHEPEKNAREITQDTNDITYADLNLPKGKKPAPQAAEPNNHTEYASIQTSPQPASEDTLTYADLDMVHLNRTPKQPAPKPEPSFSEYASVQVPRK
human SIRPβ1v1 (huSIRPβ1v1) (human), sequence (O00241 30-371): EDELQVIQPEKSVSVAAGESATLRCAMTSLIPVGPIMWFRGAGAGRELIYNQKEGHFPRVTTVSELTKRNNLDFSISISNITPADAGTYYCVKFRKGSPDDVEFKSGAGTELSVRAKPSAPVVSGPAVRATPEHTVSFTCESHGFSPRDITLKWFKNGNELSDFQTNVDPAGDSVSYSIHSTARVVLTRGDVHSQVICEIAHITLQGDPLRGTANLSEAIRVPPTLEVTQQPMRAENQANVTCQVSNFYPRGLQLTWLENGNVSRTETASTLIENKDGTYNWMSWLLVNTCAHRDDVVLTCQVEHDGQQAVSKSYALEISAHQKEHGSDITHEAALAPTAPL
T5 sequence (Q5TFQ8 30-371 limits assumed): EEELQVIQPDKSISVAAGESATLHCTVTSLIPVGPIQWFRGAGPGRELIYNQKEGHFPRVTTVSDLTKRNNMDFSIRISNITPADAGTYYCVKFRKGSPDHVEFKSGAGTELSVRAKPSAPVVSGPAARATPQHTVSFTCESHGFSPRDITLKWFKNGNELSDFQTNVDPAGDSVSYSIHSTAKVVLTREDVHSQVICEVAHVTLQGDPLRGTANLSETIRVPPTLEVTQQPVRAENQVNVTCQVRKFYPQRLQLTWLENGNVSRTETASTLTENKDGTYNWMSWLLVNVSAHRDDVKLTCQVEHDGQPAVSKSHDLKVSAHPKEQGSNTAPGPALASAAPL

EC50 [1]: 0.22 µg/mL | Kd [2]: < 0.01 nM | binding result [3]: no binding | EC50 [4]: 0.29 µg/mL | Kd [5]: 0.089 nM | EC50 [6]: 0.38 µg/mL | EC50 [7]: 0.37 µg/mL
B3: anti-SIRPα antibody 14 humanized (antibody, human IgG1, V domains shown)
VH: RQLVESGGGLVQPGGSLRLSCTASGFSLSSHGISWVRQAPGKGLEYIGTIGTGVITYFASWAKGRFTGSKTSSTAYMELSSLRSEDTAVYFCARGSAWNDPFDPWGQGTLVTVSS
VL: DIEMTQSPSSVSASVGDRVTLTCQASQSVYGNNDLAWYQQKPGQAPKLLIYLASTLATGVPSRFSGSGSGTDFTLTISSLQPEDFATYYCLGGGDDEADNVFGGGTKVEIKR
notes: Humanized, human IgG1 LALA / kappa

EC50 [1]: 0.13 µg/mL | Kd [2]: 41 nM | binding result [3]: no binding | EC50 [4]: 0.3 µg/mL | Kd [5]: 0.14 nM | EC50 [6]: 0.32 µg/mL | EC50 [7]: 1.05 µg/mL
B5: anti-SIRPα antibody 11 humanized (antibody, human IgG1, kappa, L234A L235A, V domains shown)
VH: EVKVEESGGGLVQPGGSLRLSCAASGFSLSSYVMGWVRQAPGKGLEWVSIISSSGSPYYASWVNGRFTISKTSTTMDLQMNSLRAEDTAVYYCARVGPLGVDYFNIWGQGTTVTVSS
VL: DIQMTQSPSSLSASVGDRVTITCQAGQSINSYLAWYQQKPGKVPKLLIYYASTLESGVPSRFSGSGSGTDFTLTISSLQPEDVATYYCQSWHYISRSYAFGQGTKVEIKR
notes: as for B3

Continued, binder first:

B1: anti-SIRPα antibody 10 humanized (antibody, human IgG1, kappa, L234A L235A, V domains shown)
VH: KVEESGGGLVQPGGSLRLSCAASGFSLSSYVMGWVRQAPGKGLEWVSIISSSGSPYYASWVNGRFTISKDNSEGMVYLQMNSLRAEDTAVYYCARVGPLGVDYFNIWGQGTTVTVSS
VL: DIVMTQSPDSLAVSLGERATINCQAGQSINSYLAWYQQKPGQPPKLLIYYASTLESGVPDRFSGSGSGTDFTLTISSLQAEDVAVYYCQSWHYISRSYAFGGGTKLEIKR
notes: as for B3
EC50 [1]: 0.17 µg/mL | Kd [2]: 3.2 nM | binding result [3]: no binding | EC50 [4]: 0.2 µg/mL | Kd [5]: < 0.01 nM | EC50 [6]: 0.27 µg/mL | EC50 [7]: 0.38 µg/mL

B2: anti-SIRPα antibody 13 humanized (antibody, human IgG1, V domains shown)
VH: B3 VH
VL: B3 VL with D1A, E3Q, V11L, L21I, Q44K
notes: as for B3
EC50 [1]: 0.14 µg/mL | Kd [2]: < 0.01 nM | binding result [3]: no binding | EC50 [4]: 0.23 µg/mL | Kd [5]: 0.012 nM | EC50 [6]: 0.44 µg/mL | EC50 [7]: 0.36 µg/mL

B4: anti-SIRPα antibody 3 (antibody, human IgG1, kappa, L234A L235A, V domains shown)
VH: QSVEESGGRLVTPGTPLTLACTVSGFSLISYYISWVRQAPEKGLEYIGIINIGGGASYASWAKGRFTISKTSTTVDLKITSPTPEDTATYFCAMSYGMDTGAFNIWGPGTLVTVSL
VL: AQVLTQTPASVSAAVGGTVTISCQSSESVYKNNFLSWYQQKPGKPPKLLIYGASTLASGVPSRFKGSGSGTQFTLTISDLESDDAATYFCQGGYRTDIYPFGGGTEVVVKR
notes: Rabbit variable regions on human IgG1 LALA / kappa
EC50 [1]: 0.22 µg/mL | EC50 [8]: > 100 µg/mL | EC50 [9]: 0.024 µg/mL | EC50 [10]: 5.22 µg/mL | EC50 [11]: 0.089 µg/mL | EC50 [12]: 0.036 µg/mL | EC50 [13]: 0.015 µg/mL
